Data reported in the DeepSol protein solubility set.

Assay: soluble on expression in E. coli; label from the status in PepcDB or PDB records

Sequence | soluble on expression in E. coli
GPGSMSKQLTFISAGATAAVLQSASAIVSKVAGGRVQTKTAKEAGRHAVVVGPETPIGVHTAVTEAPKSAQDPLFSGVSTVVVRAVLPRAAPDSVQLRDALDVYASAGIDTKEEVRSATEAFKKSAEVAVGKAKAKGVKRIVLVVKQASKHNCINELFKKISTETIESAGLTTEVVGTASVANQLIVNPESLGVVLLNDVAATEQIELAFAGVVGGVSRVYHTVEGGKISAGHSFKSVALAVAQELRELGLSSEADKVEAAASKNPRAVVSAL | not soluble
MRGSHHHHHHTDPALRASVKVIVTDMDGTFLNDAKTYNQPRFMAQYQELKKRGIKFVVASGNQYYQLISFFPELKDEISFVAENGALVYEHGKQLFHGELTRHESRIVIGELLKDKQLNFVACGLQSAYVSENAPEAFVALMAKHYHRLKPVKDYQEIDDVLFKFSLNLPDEQIPLVIDKLHVALDGIMKPVTSGFGFIDLIIPGLHKANGISRLLKRWDLSPQNVVAIGDSGNDAEMLKMARYSFAMGNAAENIKQIARYATDDNNHEGALNVIQAVLDNTSPFNSGLCGR | soluble
MGSDKIHHHHHHMKEQILEKLKTVKYPGFEKDIVSFNFVKDIKIQDDGVFIDIEIVSANPEVANEIRKNTIEALSSLALKNIELNIITPKIPEEKSNSRSGKNIAPQVKNFIMVSSGKGGVGKSTTTVNLAISMAKMGKRVGILDADIYGPNIPRMLGETKTQPEVVGQRLKPILTHGVYMMSMGVLIEEGQGLMWRGAMIMKAIEQLLADVIWPELDVLFLDMPPGTGDAQITSAQSIPIAAGVCVSTPQTVSLDDSKRALDMFNKLHIPIAGVIENMSGFLCPDNGKEYDIFGKGTAEDMAKAYKSEVLAQIPIEMIVREGGDEGKPVSFYHPESVSSKRYLMAAEKIWSFIEKINNEGGADNSAIQPVMNGKSACSH | not soluble
MPSRLSLIAALLLPLAVQAEPADTRALLADSLADSQAQVEAAEQAMRRSENKAVQLYAKRVLTEQQEFDHQLRALAGEKALALPSPRQTERQAAAPGGFDERGFLDAQIRQQDRLVARFEGIARDSADPDLRRFADEWLARFYHHRELADQLRSGRAD | not soluble
APVPTYQTLIVRPGDLQQSVLATGKLDALRKVDVGAQVSGQLKTLSVAIGDKVKKDQLLGVIDPEQAENQIKEVEATLMELRAQRQQAEAELKLARVTYSRQQRLAQTQAVSQQDLDNAATEMAVKQAQIGTIDAQIKRNQASLDTAKTNLDYTRIVAPMAGEVTQITTLQGQTVIAAQQAPNILTLADMSAMLVKAQVSEADVIHLKPGQKAWFTVLGDQLTRYEGQIKDVLPTPEKVNDAIFYYARFEVPNPNGLLRLDMTAQVHIQLTDVKNVLTIPLSALGDPVGDNRYKVKLLRNGETREREVTIGARNDTDVEIVKGLEAGDEVVIGEAKPGAAQ | soluble
MPSRQLEDPGAGTPSPVRLHALAGFQQRALCHALTFPSLQRLVYSMCSLCQEENEDMVPDALQQNPGAFRLAPALPARPHRGLSTFPGAEHCLRASPKTTLSGGFFVAVIERVEMPT | not soluble
MSNARIGIDMSKIYAPKSIDLSSFQLPDEKLQTKYGLPHKVEFCKSCVISNQRPNSAVEYEHKKESKKHTIHFDDEGICDACRVAERKKSTINWEERDRQLRELCDRFRSKDGSYDCVVPGSGGKDSFYAAHILKYKYGMNPLTVTWAPHMYTPWGWRNFQSWIHAGFDNHLFTPNGRVHRLLTRLAVENLFHPFQPFMIGQKAYAPKMALLHKIKLVVYGENEAEYGNPIGDTESAKRDWKYFTADDKSKIFLGGTSVQELKSDFGLNDNDLDAYLPADPQQIEEQQVEVHYLGYYLKWHPQSCYYYSVEHGGFEASPERTPGTYSKYNSIDDKIDDFHYYTTLTKFGIGRATYDASQEIRSGDITVEEGVALVKRFDQEFPERFAEEIFKYLSINLKEFPIASQMFEQPIMDRAYFMALADTFRSPHLWKKDGEQWKLRHQVTNLEKTKAEYLDLETV | not soluble
MHAFPLTLDNRLAEALPLWRNLARTDRAPRRNIDLADWKADWRELIAALDRFSRSHGYRQPFAAQGHAALENAWAWGQAAENASTLLLKAIDRGLAGAELRSIYLETAALWLDYSRLLGAARDSLREQGEVDFETAPALAPRTGQYPFALQLLAMGVLLDAQELIPALVEEVLQFDTDRLLDYLGAAALGLTSASEETFHPRPFGQLRAFFEEADGSDAQALAPYLQSQYREFFQLSPKAQKKTRRLTGPYAWGWWAMEVSALGVLYGWDDGVLRASPHYLGDLVDYARARGDA | soluble
MSLEGTQMLATNKKCWDTVAPYFFQVDCLPKYGPYTASEDEIRLFDSIRKKKVLDIGCGSGHSLQYMAEQGAEELWGLDLSSTQIEIANKTLKDWNPKLVCGAMEEEGDIPKGYFDIVYSIYALGWTSDLRKTLELIYSYVKPGGSFIFSWEHPVYSNLQYGTEEVAIKSSYHEETPITFETFKGENVQATLHKRKISTYINELNRAGFKIERIEEPEPSSSLDGELAEPSTKYYSLYKARMVPTTFIIKARKEGHHHHHH | soluble
MAKLLYVQTSGIDTPERLYAPFVLAMTAKAMGDDAIIYFVIKGVTVVKKDNAEKIKMGNFPPLSELMKQARESGVEMMVCDRSSELLGIDKGEIVDGVKIVGAATLNQLVLEADGVLYF | not soluble
MGSDKIHHHHHHMQNQKPSVSLIRATSYEREALKNSLVTLLEPFGGMAAFVKPGQRVLLKPNLLTGARPTKECTTRAELVYAVAQMVIAAGGKPFLGDSPAFGSAKGVAIANGYQPLIQELNLPIIDFHGKRYETVSENFNHLLLSKEVIEADVVINLPKVKSHAQLTLTLGVKNLFGCVPGKMKAWWHMEAGKDADRFGEMLVETARAINPDLTILDGIIGHEGNGPSGGEPRALGILAAASDIFALDRAMVEILNVPPHQVPTVAASQRLRVCPELADVEFPNLHPDLLKIYDWQLPDKLMPIDFAMPRVIKSTFKHFYIRFIKEPMSAYGKQ | not soluble
MGSDKIHHHHHHMTVHWRERVGNQRDWVWRGWRTRYTYIRPSQEGQEKTPLILLHGFGASIGHWRHNLEVLGESHTVYALDMLGFGGSEKAPANYSIELWVEQVYDFWRAFIRQPVVLIGNSNGSLISLAAAAAHPDMVKGIVMMSLPDPSLEQEMIPPFLRPVVTTIKNIVASPIFLKPVFYFVRRPSILRRWAGIAYANPAAITDELVDILAGPPQDRGSARAFSALFKAAIGVNFSPSVKAILPTLQIPMLLIWGNKDRFVPPILANQFAQYNEKLQLLNLDDVGHCPHDECPEQVNKAILAWMDKSLGDY | not soluble
MGSLDLPYASSFKGGSETFLQNVFESILKTYLRKNPMAKTIWELVKSVDNEKISYDHFFFRTFKVDGYGIDSLASFFMDYGYKVGGRLDFPKKKVQVLWLSPPDVHFPDNGYGIGNGPLPRLVIAELLVEELSPESQEIIRKYLKPEGGKQAVLSSTLGSLIWEKPTSTDFNQLAKESEFAAWTLVYGYTMNHLAFAVHRLKHRFSDIKCVKEYFEENGFELNKDGGVLKVSEDSLLLQVSAMSEKLVVEFADGVTQIVPASYIEFVERLVLPQFKDMPCDEIKEFHRREGLEQASAYHIMESTRFTA | soluble
MDKLKFGLVSLGCDKNRVDSEIILGSMNRDYEIVNDPREADVILVNTCGFIESAKQESINTILEMNKYKEKYNCKMLIATGCLTQRYGKELKELVPEIDAILGVNDYKSLDDAIEDFFNLGKKDIYCNYSDQSINEGKRIITTGEYSSYVRISEGCNNSCSYCIIPKIRGKYRSRQFENIIDEVRELSENGTKEVILIAQDTTRYGVDLYGRKRLHELLKEMSLIQGIEWIRIMYCYPEEITEELIEEIASNEKVCNYIDMPIQHISDNILKNMFRKTRKSEILDKVEKIRKKVPNIAIRTSLIVGFPGETEGDFNELCDFVKDANINNLGVFRYSREEGTKAALMPMQIADTVKEKREEDIMLIQQQVSKNLNAKKIGKVYKVIVEGFNGDYWYGRNFEMAPEIDGKVFFKSQSEIKVGSFINIKITENLEYDLIGVVYNEFSKLEHHHHHH | soluble
MGSDKIHHHHHHQEAKGSADETKVEVQYLDPRDPFEGFNRAMWDFNYLYLDKYILKPVAHGYNDYLPLPVKDGVHNFTTNFDEPSSLVNNILQGKWSWAANAGGRFTVNTSLGILGIFDVAQMMGMERKQDDFSEVLGFYGVPNGPYFMAPFFGPFVTREIASDWVDGLYFPLSELTMWQSALKWGMKSLHNRAEAIDRERLLDNALDPYAFVKDAYFQHVDYKVYDGNVPTTQEDDELLDEFMEELE | not soluble
MLPLPLIANGKGFIRALENDGALAVYAPLEGGYEGRYQRRLRANGYASISLSARGLGDVEAYLMQVHGVRPAHLGKKNIAQEGAVGPIYFAQPIAGYQLENLPAQSKGLVLWILEGYILSQTEIQDLISLTKRVPKLKVVLEMGGDRVFRWQPLLDCLQAALEHHHHHH | soluble
SLEKKDTNSLKLLLIGNTGIGEYKSRAERKGLWYKLKRFLWTNEFDQTVSALAKWHAEEKADAVLGLGDFLGIPGPLSARDERFTKRWYDIFVKDAKLDIPWLMTLGEEEALVNPSASVRHHYTGEHPNWYMPNDAYTATFSFSTSMTMANGTIQHEAFNATVINVNTWNLFVGNPIANNMQSMMDRLMWLSDQLYTAVNQTTNWLIIMGHLPLVSTGPQGEQGRLQYVDDLYKNGQPRGPEAVLIQMLLSHYQVDLYVSAHDHFMEYVALEDLSKNTTTAFITSGAAVRLLDKDVGRGWIGRLRGALYPILCWSGRRILYAFHPG | soluble
MNYHQYYPVDVVNGPGTRCSLFVAGCVHECVGCYNKSTWRLNSGQPFTQEQEDRIIADLQDKLIPRQGISLSGGDPLHPQNVPDILRLVERIRAECPGKDIWVWTGYVLADITREQQRVVDLINVLVDGKFVQDLKDPALIWRGSSNQVVHRLRLEHHHHHH | not soluble
MCPEFQRKAAGAPRMGAMLARCVLTAALALQAAAAARAVEIEIGVASRGVVDGLEFVQFSADERTMATTHWGNVVHLWDLKTLRVRSSVSVANRDFDFDLSPDGRALAVWNEEGKGEIELYDTDNGQPARALPAPRLPQGESRRGRSLVYRDDGTLEFVSHGWIGGHARKAYLLAVPAGQPRAAETPLPALVNSVAFRKSAVMDQGRLLLAGVDGADDELAIMDIASGRMLAREPGFRIASYAADARRAVFVEADGKQRILAFDFSSRSLSTLPRWTGSGKFQPYRFVAGTRFLVLAPDEPDASTRRAAPGIYDLQTRRLHRLPPDADPGSIDVWGATASYVLCNPDHTACQAEVADLAISRKLGTFAVQPSADFRTWISPSGSMVVVGGADDGTMMVWSVKEQRVIGPNLEHHHHHH | not soluble
MGSDKIHHHHHHMESSFEVETRTVFDRYQRQQENDDHIFDRLVSLIEEEYFGLPTGSFRGLDVLDAGCGSNANASWAFLDKGARNVVSLELSNDWMDCARKRLSRFGLRSELVAGSVLDLPFDDFSFDFVHCAGVLPHTSNPKKGFEELARVTRPGGSFFLTIMGTANGVIYRCINHLRELYQSDEQFRSSIDNLDASTAREAINWLLRIKDGEEKEYIPGENEFFRSLFDDDLFVTIRDRFQAPTYHEFAFTEAQIRGWYGECGFEKIRRISRYTKNFHNLRRFLAPMYRHYDHPLARFWFGDGCIQMIGEKPST | not soluble
MFNLKREHFRDDYLYRFYQYGDTHSKIPSNLYKVLARKLDMISASENINDLRSPPANHLELLEPKENKIYSIRVNKQYCLIFKYENNEVNNLYLDPHSYNL | not soluble
MSEPKRLFFAIDLPDDARAQIIAWRAAHFASEDGRPVAAANLHLTLAFLGDVSSDKQRALAQLAGRIRQPGFTLHLDDAGQWLRSRVVWLGMRQPPRGLLQLANMLRAQAARSGCYQSPQPFHPHITLLRDASHTVAIPPPGFCWSFPVTSFALYASSYGQGRTRYAELQRWTLGE | not soluble
